Two molecules from paper PMC6097307, “Development and characterization of an HPV18 detection kit using two novel HPV18 type-specific monoclonal antibodies” (Diagnostic Pathology, 2018) can be followed below.

The target in test [1] is T1, HPV58 L1 virus-like particle (Human papillomavirus type 58, isolate …, UniProt P26535).
T1 construct: major capsid protein L1 of human papillomavirus type 58, assembled into virus-like particles; Used native and denatured; also called HPV58 L1-VLP
The test can be described thus: ELISA; indirect ELISA; native L1-VLPs of nine HPV types coated at 200 ng/well overnight at 4 °C; mAb 0.3 μg/ml, 1 h, room temperature; HRP goat anti-mouse IgG. The settings on record: both partners purified.

The target in test [2] is T2, HPV31 L1 virus-like particle (Human papillomavirus type 31, isolate …, UniProt P17388).
T2 construct: major capsid protein L1 of human papillomavirus type 31, assembled into virus-like particles; Used native and denatured; also called HPV31 L1-VLP; HPV31VLP
The test is described as above. The settings on record: both partners purified.

Test [3] addresses T3, HPV11 L1 virus-like particle (Human papillomavirus type 11, isolate …, UniProt P04012).
T3 construct: major capsid protein L1 of human papillomavirus type 11, assembled into virus-like particles; Used native and denatured; also called HPV11 L1-VLP
The test is described as above. Conditions: both partners purified.

Test [4] deals with T4, HPV45 L1 virus-like particle (Human papillomavirus type 45, isolate …, UniProt P36741).
T4 construct: major capsid protein L1 of human papillomavirus type 45, assembled into virus-like particles; Used native and denatured; also called HPV45 L1-VLP
The description is as above. Conditions: both partners purified.

Test [5] addresses T5, HPV33 L1 virus-like particle (Human papillomavirus type 33, isolate …, UniProt P06416).
T5 construct: major capsid protein L1 of human papillomavirus type 33, assembled into virus-like particles; Used native and denatured; also called HPV33 L1-VLP
The test is described as above. Conditions: both partners purified.

Test [6] deals with T6, HPV16 L1 virus-like particle (Human papillomavirus type 16, isolate …, UniProt P03101).
T6 construct: major capsid protein L1 of human papillomavirus type 16, assembled into virus-like particles; Used native and denatured; also called HPV16 L1-VLP
The test is described as above. Conditions: both partners purified.

In test [7] the target is T7, HPV18 L1 virus-like particle (Human papillomavirus type 18, isolate …, UniProt P06794).
T7 construct: major capsid protein L1 of human papillomavirus type 18, assembled into virus-like particles; The background says that 72 L1 pentamers make up the capsid; Used native, and denatured (0.2 M sodium carbonate pH 10.6, 10 mM DTT, boiled) in separate assays; also called HPV18 L1-VLP; HPV18 L1-VLPs
The test can be described thus: SPR; BIACORE3000; L1-VLPs coupled to the chip (40 μg/ml, acetate pH 5.5, 4000 RU); antibodies at seven concentrations 0.3125 to 20 nM in PBS; binding 60 s, dissociation 500 s. Conditions: both partners purified.

The target of test [8] is T7, HPV18 L1 virus-like particle. Nature of the test: cell-based or functional assay.
The target in test [9] is T1, HPV58 L1 virus-like particle. Nature of the test: ELISA; indirect ELISA as a2 but L1-VLPs denatured (0.2 M sodium carbonate pH 10.6, 10 mM DTT, 30 min, boiled 5 min) before coating; mAb 0.3 μg/ml. The settings on record: both partners purified.
The target of test [10] is T2, HPV31 L1 virus-like particle. The test is described as above. The settings on record: both partners purified.
In test [11] the target is T4, HPV45 L1 virus-like particle. The test is described as above. Conditions: both partners purified.
For test [12], the target named is T5, HPV33 L1 virus-like particle. The test is described as above. Conditions: both partners purified.
For test [13], the target named is T6, HPV16 L1 virus-like particle. Described as above. The settings on record: both partners purified.

T7 sequence (P06794 whole entry): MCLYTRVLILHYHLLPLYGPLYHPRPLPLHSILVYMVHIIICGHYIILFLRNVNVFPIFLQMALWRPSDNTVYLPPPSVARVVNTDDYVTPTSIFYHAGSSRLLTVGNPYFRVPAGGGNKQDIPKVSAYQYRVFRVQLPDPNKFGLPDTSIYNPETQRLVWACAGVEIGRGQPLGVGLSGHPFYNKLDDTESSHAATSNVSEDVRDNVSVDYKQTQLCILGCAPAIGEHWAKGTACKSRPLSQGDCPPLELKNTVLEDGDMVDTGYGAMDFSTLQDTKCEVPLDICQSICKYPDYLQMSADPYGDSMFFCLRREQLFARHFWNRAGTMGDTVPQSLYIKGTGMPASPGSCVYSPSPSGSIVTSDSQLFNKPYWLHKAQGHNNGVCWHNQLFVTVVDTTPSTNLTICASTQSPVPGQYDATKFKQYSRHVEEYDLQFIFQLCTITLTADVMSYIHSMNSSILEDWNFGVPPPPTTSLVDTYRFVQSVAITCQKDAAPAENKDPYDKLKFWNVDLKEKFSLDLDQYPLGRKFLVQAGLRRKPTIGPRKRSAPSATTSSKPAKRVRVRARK
T3 sequence (P04012 whole entry): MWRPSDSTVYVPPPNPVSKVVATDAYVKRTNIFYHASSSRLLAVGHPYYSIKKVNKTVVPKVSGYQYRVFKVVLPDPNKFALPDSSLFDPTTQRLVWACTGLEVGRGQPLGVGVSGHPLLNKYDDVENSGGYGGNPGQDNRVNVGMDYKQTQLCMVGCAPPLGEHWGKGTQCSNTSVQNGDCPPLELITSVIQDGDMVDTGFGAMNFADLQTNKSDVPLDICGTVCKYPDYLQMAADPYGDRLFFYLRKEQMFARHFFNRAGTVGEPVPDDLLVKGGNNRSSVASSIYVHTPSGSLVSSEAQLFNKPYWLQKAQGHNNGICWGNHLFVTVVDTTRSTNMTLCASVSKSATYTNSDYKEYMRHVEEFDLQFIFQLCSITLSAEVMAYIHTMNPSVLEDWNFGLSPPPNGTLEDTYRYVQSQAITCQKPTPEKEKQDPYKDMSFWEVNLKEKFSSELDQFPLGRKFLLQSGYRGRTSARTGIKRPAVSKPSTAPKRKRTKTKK
T6 sequence (P03101 whole entry): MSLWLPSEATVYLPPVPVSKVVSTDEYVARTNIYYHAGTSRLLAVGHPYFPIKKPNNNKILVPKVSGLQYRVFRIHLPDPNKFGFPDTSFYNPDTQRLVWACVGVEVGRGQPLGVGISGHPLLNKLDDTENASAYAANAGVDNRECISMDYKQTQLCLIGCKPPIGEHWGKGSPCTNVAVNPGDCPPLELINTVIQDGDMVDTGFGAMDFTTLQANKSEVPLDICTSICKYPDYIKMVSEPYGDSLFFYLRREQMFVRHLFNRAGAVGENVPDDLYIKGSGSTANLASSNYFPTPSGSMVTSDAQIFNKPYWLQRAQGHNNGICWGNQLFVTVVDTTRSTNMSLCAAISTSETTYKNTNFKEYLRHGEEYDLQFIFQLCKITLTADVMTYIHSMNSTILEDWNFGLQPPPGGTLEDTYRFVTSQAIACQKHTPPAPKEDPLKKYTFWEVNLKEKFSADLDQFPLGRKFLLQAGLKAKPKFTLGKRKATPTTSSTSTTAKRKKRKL
T5 sequence (P06416 whole entry): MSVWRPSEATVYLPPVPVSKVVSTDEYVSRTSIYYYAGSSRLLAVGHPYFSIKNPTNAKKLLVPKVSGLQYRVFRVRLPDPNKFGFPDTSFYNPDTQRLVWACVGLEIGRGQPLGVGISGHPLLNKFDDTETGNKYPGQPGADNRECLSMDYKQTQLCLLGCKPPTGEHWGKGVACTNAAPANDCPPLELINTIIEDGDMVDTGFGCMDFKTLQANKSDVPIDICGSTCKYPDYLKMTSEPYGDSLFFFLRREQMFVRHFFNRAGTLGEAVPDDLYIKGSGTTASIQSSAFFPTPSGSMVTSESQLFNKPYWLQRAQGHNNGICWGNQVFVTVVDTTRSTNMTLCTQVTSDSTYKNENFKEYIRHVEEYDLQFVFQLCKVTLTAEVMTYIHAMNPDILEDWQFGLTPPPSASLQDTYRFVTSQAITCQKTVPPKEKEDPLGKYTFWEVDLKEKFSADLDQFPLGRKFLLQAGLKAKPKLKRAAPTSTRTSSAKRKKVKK
T1 sequence (P26535 whole entry): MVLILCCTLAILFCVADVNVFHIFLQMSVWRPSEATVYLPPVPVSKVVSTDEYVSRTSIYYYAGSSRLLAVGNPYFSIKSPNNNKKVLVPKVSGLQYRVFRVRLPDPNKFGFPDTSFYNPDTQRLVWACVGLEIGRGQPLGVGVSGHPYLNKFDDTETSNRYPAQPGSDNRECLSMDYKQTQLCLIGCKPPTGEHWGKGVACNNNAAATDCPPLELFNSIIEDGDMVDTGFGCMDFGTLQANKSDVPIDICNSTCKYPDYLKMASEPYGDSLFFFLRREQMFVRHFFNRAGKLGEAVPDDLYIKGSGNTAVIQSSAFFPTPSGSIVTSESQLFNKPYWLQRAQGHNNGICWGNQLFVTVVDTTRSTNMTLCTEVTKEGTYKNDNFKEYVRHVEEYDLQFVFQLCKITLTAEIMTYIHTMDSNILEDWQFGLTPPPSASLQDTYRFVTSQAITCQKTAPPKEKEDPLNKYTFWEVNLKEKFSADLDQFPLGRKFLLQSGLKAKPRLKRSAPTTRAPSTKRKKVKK
T2 sequence (P17388 whole entry): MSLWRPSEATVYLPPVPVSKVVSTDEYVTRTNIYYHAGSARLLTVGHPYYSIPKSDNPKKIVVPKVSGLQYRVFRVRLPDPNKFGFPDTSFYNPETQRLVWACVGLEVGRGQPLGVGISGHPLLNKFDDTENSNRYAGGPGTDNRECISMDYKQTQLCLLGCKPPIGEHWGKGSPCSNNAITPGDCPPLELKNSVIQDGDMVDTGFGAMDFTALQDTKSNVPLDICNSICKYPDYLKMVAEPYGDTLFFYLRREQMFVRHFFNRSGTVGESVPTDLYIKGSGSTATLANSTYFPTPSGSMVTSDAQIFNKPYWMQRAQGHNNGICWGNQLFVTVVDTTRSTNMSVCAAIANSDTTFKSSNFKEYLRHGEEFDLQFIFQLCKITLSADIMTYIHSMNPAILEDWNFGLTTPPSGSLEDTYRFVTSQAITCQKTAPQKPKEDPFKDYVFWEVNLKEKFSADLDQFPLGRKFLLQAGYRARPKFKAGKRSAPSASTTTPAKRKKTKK
T4 sequence (P36741 whole entry): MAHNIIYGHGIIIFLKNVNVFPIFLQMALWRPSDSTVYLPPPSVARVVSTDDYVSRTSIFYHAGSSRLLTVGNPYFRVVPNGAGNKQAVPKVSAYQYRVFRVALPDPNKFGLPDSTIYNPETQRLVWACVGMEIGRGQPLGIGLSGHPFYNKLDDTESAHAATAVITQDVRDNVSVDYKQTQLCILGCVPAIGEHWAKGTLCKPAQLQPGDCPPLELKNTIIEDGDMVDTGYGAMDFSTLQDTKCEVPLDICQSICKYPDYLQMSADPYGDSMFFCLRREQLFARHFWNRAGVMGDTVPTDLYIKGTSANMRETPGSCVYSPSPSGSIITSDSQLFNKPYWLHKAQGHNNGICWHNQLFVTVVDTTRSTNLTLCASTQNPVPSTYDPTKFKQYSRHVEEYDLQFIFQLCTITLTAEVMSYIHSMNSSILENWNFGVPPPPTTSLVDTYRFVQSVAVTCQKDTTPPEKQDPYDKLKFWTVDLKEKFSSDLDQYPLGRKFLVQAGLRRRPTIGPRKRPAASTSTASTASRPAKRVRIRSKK

B1: monoclonal antibody 4C2 against HPV18 L1-VLP (antibody, V domains shown)
VH: VKLQESGAELMKPGASVKISCKATGYTFRSYWIEWVKQRPGHGLEWIGEILPGSGITNYNEKFKGKATFTADTSSNTAYMQLSSLTSEDSAVYYCARHWDGNAMDYWGQGTTVTVSS
VL: DIQLTQSPLSLPVSLGDQASISCRSSQSIVHSNGNTYLEWYLQKPGQSPKLLIYKVSNRFSGVPDRFSGSGSGTDFTLKISRVEAEDLGVYYCFQGSHVPLTFGAGTKLEI
notes: IgG1; Coating antibody of the sandwich ELISA kit; also called mAb 4C2; source: mouse hybridoma (BALB/c spleen cells fused with SP2/0), ascites, purified on Protein G; copies: 2 + 2
For the molecule B1, the binding result in test [1], in test [2], in [3], in [4], in test [5] and in [6] was “no binding (tested: 0.3 μg/ml mAb)” each time. For the same molecule, the affinity in test [7], expressed as Kd, was 7.45 nM. The molecule also returned a koff in test [7] of 0.0178 s⁻¹. Further, the kon in test [7] worked out at 2.38e+06 M⁻¹ s⁻¹. For the same molecule, the “IC50 of neutralisation of HPV18 pseudovirus (PsV18) infection of 293FT cells, fluorescence by flow cytometry” value in test [8] was found to be 10 µg/mL.

B2: monoclonal antibody 1B1 against HPV18 L1-VLP (antibody, V domains shown)
VH: VQLQQSGGDLVKPGGSLKLSCAASGFTFSSYGMSWVRQTPDKRLEWVATISGGGSYTYYPDSVKGRFTISRDNAKNTLYLQMSSLKSEDTAMYYCSRHDSYGNYAAWFAYWGQGTTVTVS
VL: DIQLTQSPALMAASPGEKVTITCSVSSSISSSNLHWYQQKSETSPKPWIYGTSNLASGVPVRFSGSGSGTSYSLTISSMEAEDAATYYCQQWSSYPFTFGSGTKLEI
notes: IgG1; unconjugated in indirect ELISA and SPR; also called mAb 1B1; 1B1-HRP; source: mouse hybridoma (BALB/c spleen cells fused with SP2/0), ascites, purified on Protein G; copies: 2 + 2
On to B2, for which the binding result in test [3], in test [9], in test [10], in test [11], in test [12] and in test [13] was “no binding (tested: 0.3 μg/ml mAb)” each time. In test [7], this molecule came in with a Kd of 2.06 nM. The same molecule returned a koff in [7] of 0.00192 s⁻¹. In test [7], this molecule registered a kon of 931000 M⁻¹ s⁻¹. For the same molecule, in [8], the “IC50 of neutralisation of HPV18 pseudovirus (PsV18) infection of 293FT cells, fluorescence by flow cytometry” value was determined as 0.039 µg/mL.
